The target of one assay is T1, human interleukin-2 (human, UniProt P60568 21-153).
T1 construct: Teceleukin is named only for the in vivo treatments; also called hIL-2; human IL-2
Put plainly: SPR, antibody amine-coupled to GLM chip, hIL-2 as analyte (100 nM, three-fold dilutions). The method, then: For this experiment an amine coupling GLM chip was used. The activation of the carboxylic acid groups in the chip was done using a mix of 1-ethyl-3-3-dimethylaminopropyl carbodiimide hydrochloride (EDC at 0.2 M) and sulfo N-hydroxysulfosuccinimides (s_NHS at 0.05M) at 30 μl/min for 420 seconds (s). […] Deactivation was followed adding ethanolamine HCl at 30 μl/min for 300 s. Finally human IL-2 was added at different concentrations (starting from 100 nM and followed by three-fold dilutions) at 100 μl/min, 600 s association, and 240 s dissociation.
In order to characterize the binding properties of the anti-human IL-2 mAbs the binding to human interleukin-2 was tested with surface plasmon resonance binding assays.
A general note: In SPR one partner is held on a chip, and binding of the other changes the refractive index at the surface.

Another assay concerns the target T2, murine interleukin-2 (mouse, UniProt P04351 21-169).
T2 construct: also called mouse IL-2; mIL-2
T2 sequence (looked up): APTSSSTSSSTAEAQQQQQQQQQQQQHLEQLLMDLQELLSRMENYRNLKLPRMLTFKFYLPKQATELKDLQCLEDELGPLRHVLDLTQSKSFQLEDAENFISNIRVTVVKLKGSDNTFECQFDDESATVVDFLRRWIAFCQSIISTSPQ
The assay is described as follows: SPR, NARA1 amine-coupled to a GLM chip, mouse IL-2 injected at 10 to 0.041 nM.

T1 sequence (P60568 21-153 limits assumed): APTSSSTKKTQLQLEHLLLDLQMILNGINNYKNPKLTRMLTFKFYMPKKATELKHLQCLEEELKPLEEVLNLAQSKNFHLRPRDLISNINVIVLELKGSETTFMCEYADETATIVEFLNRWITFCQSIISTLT

B1: monoclonal antibody NARA1 (antibody, mouse IgG2a, kappa, V domains shown)
VH: QVQLQQSGAELVRPGTSVKVSCKASGYAFTNYLIEWVKQRPGQGLEWIGVINPGSGGTNYNEKFKGKATLTADKSSSTAYMQLSSLTSDDSAVYFCARWRGDGYYAYFDVWGAGTTVTVSS
VL: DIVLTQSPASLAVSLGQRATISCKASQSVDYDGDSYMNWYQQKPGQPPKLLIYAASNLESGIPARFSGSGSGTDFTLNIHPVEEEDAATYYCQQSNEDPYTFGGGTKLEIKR
notes: also called hIL-2 mAb
Turning to B1, in the assay with human interleukin-2, the affinity, expressed as Kd, was 1.2 nM and the dissociation rate constant (koff) (usually the rate constant with which the complex falls apart) came out at 2.08e-05 s⁻¹. Also, the binding result in the assay with murine interleukin-2 is given as “no binding (tested: 10 nM)”.

The values are drawn from US20190016796A1 (UNIVERSITAT ZURICH, published 2019).
